Test results from PMC9712074 (Cell Reports, 2022).

These binders were tested against SARS-CoV-2 (WT) Spike RBD Protein (His Tag) (SARS-CoV-2 ancestral (Wuhan-Hu-1), UniProt P0DTC2).

| Binder | binding result |
| --- | --- |
| BD55-5175 (antibody, V domains shown) VH: QVQLVQSGPELKRPGASVKVSCETSGYTFTDYAINWVRQAPGQGLEWMGWINTNTGHPTYAQGFTGRFVFSVDMSDSTAYLQISSLKPADTAVYYCARDFQVPEGLDYWGQGTLVTVSS VL: DIVMTQSPATLSLSPGETATLSCRASYSFTSRLAWYQQKPGQAPRLLIHDASNRAPGVPARFSGSGSGTEFTLAISGLQSEDSAVYYCQQYHSWPLTFGQGTKVEIK | binds |
| BD55-5171 (antibody, V domains shown) VH: QVQLVQSGSGLKKPGASVKVSCRTSGYSFTDHTINWVRQAPGQGLEWMGWINTATGIPTYAQGFTGRFVFSLDTSVGTAFLLISSLQAADTAVYYCARAASWDYCGNNNCFGDYWGQGTLVTVSS VL: ENVLTQSPGTLSLSVGERVTLSCRASHSVGSSFLAWYQQKPGQAPRLLIYGASNRATGIPDRISGRGSGTDFSLTISRLEPEDFAVYYCHQYGSSPFTFGQGTKVEIK | binds |
| BD55-5200 (antibody, V domains shown) VH: QVQLQESDPGLVKPSQTLSLTCTVSGGSISGGSNFWNWIRQPAGKGLEWIGRIYTSGNTDYNPSLKSRVTISVDTSKNQFSLRLSSVTAADTAVYYCARDRLSGKVEVAINHFSYGLDVWGPGTTVTVSS VL: SHELTQPPSVSVSPGQTARITCSGDALPKQYAYWYQQKSGQAPVLVIYKDSERPSGIPERFSGSSSGRTVTLTISGVQAEDEADYYCQSADSSNIYLAFGGGTKVTVL | binds |
| BD55-5201 (antibody, V domains shown) VH: QVQVVQSGAEVKKPGSSVKVSCEASGGTFSSDTIHWVRQAPGQGLEWMGRIIPIPGIVNYAQKFQGRVTITADKSTSIAYMELSSLRSEDTAVYYCASAPPRGYSGYDLLGNDPLDIWGQGTMVTVSS VL: QSVLTQPPSVSGAPGQRVTISCTGSSSNIGAGYDVHWYQQLPGTAPKFFISVNNNRPSGVPDRFSGSKSGTSASLAITGLQAEDEAVYYCQSFDSSLSGSYVFGTGTKVTVL | binds |
| BD55-5198 (antibody, V domains shown) VH: EVQLVESGGGVVKPGGSLRLSCAASGFTFSAFAMHWVRQVPGKGLEYISLISEDGYSTFYAASVTGRFTLSRDNNKKSLYLQMNSLRSEDTAFYYCAKDIGGTVAGTGADFWGQGILVTVSS VL: QSVLTQPPSVSGAPGQKVTISCTGDSSNIGAGYTVHWYQQLPGTAPKLLIYGDNNRPSGVPDRFSGSKSGTSASLAITGLQAEDEADYYCQSYDTSLSGLWVFGGGTRLTVL | binds |
| BD55-5001 (antibody, V domains shown) VH: QVQLVQSGSELKKPGASVKVSCKTSGYTFSTYAINWVRQAPGQGLEWMGWINTDTGIPTYAQGFTGRFVLSLDTSVGTAYLQISSLKAEDTAVYYCARADSGSYSWWFDPWGQGTLVTVSS VL: VIWMTQSPSSLSASIGDRVTISCRLSYGISSELVWYKQKPGKAPELLIYAASILQSGVPSRFSGTGSGTDFTLTISGLQSEDFATYYCQQYYSFPLTFGQGTKVEIK | binds |
| BD55-5167 (antibody, V domains shown) VH: QITLKESGPTLVKPTQTLTLTCTFSGFSLTTTGMGVGWIRQPPGKAPEWLALIYWLDDTRYSPSLESRLTLTKDTSKNLVVLTMTNMDPVDTATYYCAHLYYDSSSGYDTTGPDAFDFWGQGTMVTVSP VL: AIQITQSPSSLSASPGDRVTITCRASQGISSFLAWYQQRRGRAPKLLIHSASTLQNGVPSRISGSGSGTDFTLTITGLQSEDFATYYCQQYYSYPPTFGHGTKVEF | binds |
| BD55-5164 (antibody, V domains shown) VH: QLQLQESGPGLVKPSETLSLTCIVSRGSISSSSYFWAWVRQAPGKGLEWIGTIDYTGNTHYNTSLKSRVTISVDTSKNQFSLRLRSVTAADTALYFCSRQSAPPWGSSWGDYWGRGTLVTVSS VL: DIQMTQSPSSLSASVGDRVTISCQASQDISNYLNWYHQTPGKAPILLIFDASNLEAGVPSRFSGSGSGRHFSFTISSLQPEDTGTYYCQQYANLPALTFGGGTKVDIK | binds |
| BD55-5168 (antibody, V domains shown) VH: QVQLVQSGSEVKKPGSSVKVSCKASGGSFRSHAISWVRQAPGQGLEWMGCVIPTFDTANYAQNFRGRVTLTADESTSTAYMELTSLTSDDTAVYYCARLFPNGTPDSPTGPLDYWGQGTLVTVSS VL: DIQMTQSPSSLSASVGDRVTITCQASQGIGNYLNWYQQKPGKAPKLLIYGASNLHTGVPSRFSGRGSGTHFTFTINSLQPEDVATYYCQQYDYVPMYTFGQGTKLEIK | binds |
| BD55-4892 (antibody, V domains shown) VH: QVQLVESGGGVVQPGGSLRLSCAASGFTFSTYGMHWVRQAPGKGLEWVAVISYDGNNKYHADSVKGRFTISRDNSKNTLYLEMKSLRAEDTAVYYCAKEVNYGSGSFENEGRLDYWGQGTLVTVSS VL: DIQMTQSPSSLSASVGDRVTITCRTSQSINRYLNWYQQKPGKAPKLLIYATSTLQSGVPSRFSGSGSGTDFILTISNLQPEDFAAYYCQQTYSIPWTFGQGTKVEIK | binds |
| BD55-5170 (antibody, V domains shown) VH: QVQLVESGGGVVQPGRSLRLSCVASGFTFNTYGMHWVRQVPGKGLEWVAVISYDGSNQIYGDSVKGRFTISRDNSKNTVYLQMNGLRAEDTAVYYCATPLHDYSGYDLFDYGYAMDVWGQGTTVTVSS VL: QSVLTQPPSASGTPGQRVTVSCSGSSSNIGSDYVYWYQQFPGTAPKLLIYRNSQRPSGVPDRFSGSKSGTSASLAISGLRSEDEADYYCAAWDGSISAWVFGGGTKLTVL | binds |
| BD55-5195 (antibody, V domains shown) VH: QLQLQESGPRLVKPSETLSLTCSVSGGSIRSNSDYWAWIRQSPGQGLEWIGSISHSGSTYYNPSLKSRVSIFVDTSSNQFSLNLTSVTAADTAVYHCARHPSSGWLILWFDPWGQGTLVTVSS VL: EIVLTQSPGTLSLSPGERATLSCRASQSISSNFLAWYQQKPGQAPRLLIYGASNRATDIPDRFSGSGSGTDFTLTVRRLEPEDFAVYYCHQYDTSPQTFGQGTKVEIK | binds |
| BD55-5196 (antibody, V domains shown) VH: QVHLVQSGAEVRKPGASVKVSCKASGYTFTSYFMYWVRQAPGHGLEWMGMIDPISGSTNYAQRFQGRVTMTRDTSTSTVNMELTSLRSEDTAVYYCARDGGIRFGDLSPDNWFDPWGRGTLVTVSS VL: QSVLTQPPSVSGAPGQRVTISCTGSSSNLGAGYDVHWYQQLPGTAPKLLIYGNNNRPSGVPDRFSGSRSGTSASLAITGLLAEDEADYYCQSYDSSSLSGSKVFGTGTTVTVL | binds |
| BD55-5163 (antibody, V domains shown) VH: QVQLVQSGAEVKKPGASLKVSCKASGYTFTYFGVSWVRQAPGQGLEWVGWISTYHGDTNYAQKLQGRVTLTTDTSTSTVYMELRNLRSDDTAIYYCAREGGSGWGDFWGQGTLVTVSS VL: EIVLTQSPATLSLSPGERATLSCRANQSISNYLAWYQQRPGQAPRLLIFDASNRATGIPARFTGSGSETDFTLTISSLEPEDFAVYYCQQRSNWPPAFGQGTRLDIK | binds |
| BD55-5183 (antibody, V domains shown) VH: QVQLVQSGGEVKKPGSSVKVSCRASGGTFSGYTISWVRRAPGQGLEWMGGIIPMYGAANYAQKFQGRVTISAETSTGTAYMELSGLTSDDTAMYYCARDLGGEDITVAGKAPDYWGQGTLVTVSS VL: DIQMTQSPSSLSASVGDRVTVTCRASQSISKYLNWYQERPGKAPKLLIYTASSLPSEVPSRFSGSGFGTDFTLTISGLQPEDFATYYCQQSYSLPYTFGQGTKLEIK | binds |
| BD55-5182 (antibody, V domains shown) VH: EVQLVESGGGLVKPGGSLRLSCAASGFTLSNAWMTWVRQAPGKGLEWIARIKGKVDGATRDYAAPVKGRFTISTDDSKTTLFLQMNTLKTEDTAVYFCTALFTSYDMLTGRAGGRGYWGQGTLVTVSS VL: NVMLTQPHSVSESPGKTVTISCTRSSGSIASNYVQWYQQRPGSAPTTVIYEDNQRPSGVPDRFSGSIDSSSNSASLTISGLETEDEADYYCQSFDSSNHMNWVFGGGTKLTVL | binds |
| BD55-5189 (antibody, V domains shown) VH: QVQLVQSGAEVKKPGASVKVSCKASGYSFTTFYIHWLRQAPGQGLEWMGIVNVAGDTTDYAQNFQGRVTMTRDTSTGTVYMELSSLRSEDTAIYYCASPREKGYSGYDFWETTFDIWGQGTMVTVS VL: EVVMTQSPATLSVSPGERATLSCRASQSISSNLAWYQQKPGQAPRLLIYGASTRATGIPARFSGSGSGSQFTLTISSLQSEDFVVYYCQQYNNWPPIFGQGTKLEIK | binds |
| BD55-4495 (antibody, V domains shown) VH: QGHLVQSGAEVKEPGASVTLSCKASGYTFTNHFMHWVRQAPGQGLEWMARINPSGDSTNLAQKFQGRVSVTRDSSTSTVYMYLSRLRVEDTAVYYCARDRFPSPGNFVWGSPLGGMDVWGQGTTVTVSS VL: SYDLAQPPSVSVSPGQTATITCSGAALPNQYAYWYQQKSGQAPVLLLYKDSERPSGIPERFSGSNSGTTVTLTISGVQAEDEAVYYCQSADSSTSYHVFGAGTKVTVL | binds |
| BD55-4662 (antibody, V domains shown) VH: QVQLQESGPGLVKPSETLSLTCTVSGASISSYYWTWIRQPPGKGLEWIGYIYNSGSTDYSPRGSTNYSPSLESRVTISVDTSKNQFSLKLSSVTAADTAVYHCARHPWTEMATYRSAYYFDSWGQGTLVTVSS VL: QSALTQPASVSGSPGQSITISCTGTTSDVGAYNHVSWYQQHPGKAPNLMIYDVSERPSGVSDRFSASKSGNTASLTISGLQAEDEADYYCCSYAGRSTWMFGGGTKLTVL | binds |
| BD55-4664 (antibody, V domains shown) VH: QVQLQQWGAGLLRPSETLSLTCAVSGGSFSGYYWSWIRQPPGKGLEWIGEINHTGGTNYNPSLKSRVTVSIDMSRNQFSVKLNSLTAADTAVYFCAREAPDYFDSSGYRFDYWGQGALVTISS VL: QSALTQPASVSGSPGQSITISCTGTSNDVGGYNYVSWYQQHPGKAPKLIIYDVTSRPSGISNRFSGSKSGNTASLTISGLQAEDEADYYCCSYTRSFTRVFGGGTKLTVL | binds |
| BD55-4760 (antibody, V domains shown) VH: EVQLVEAGGDLVQPGRSLRLSCAASGFNFDDCAMHWVRQAPGKGLEWVSGINWSSGDIDYADSVKGRFTISRDNAKNSLYLQMNSLRPEDTAFYYCAKDPWGELSSIDFWGQGTLVTVSS VL: QLVLTQSPSASASLGASVKLTCTLSRGHSSYAIAWHQQQPEKGPRYLMRVNSDGSHIKGDGIPDRFSGSSSGAERYLTISSLQSEDEADYYCQTWSIGIRVFGGGTKLTVL | binds |
